The DeepSol protein solubility set

Assay: soluble on expression in E. coli; label from the status in PepcDB or PDB records

| Sequence | soluble on expression in E. coli |
| --- | --- |
| MAHHHHHHMDEGLPIDASEAQLEAIRREVAQYPLLSLSLPLNKESMIVKEMEHDDAYLAQTLSLFGASPVSTKQYDFGSIRYSRRDGNCFYRCAGFRLCELIVEHPERAAEYVALLKSREESLSRLFGLFVFDFTDALAEILKGVADKTITSVAQVYNRFISDDAAYVLAALRYLISAYLQEHEEEYEPFVSGLGYGAVRDYCNAEVELVDHESDNVQLAAFAKAFNVCIKVYALDRNAGNNITEYSFNGEDNDAGDRLVVGLLYMPGHYNLLGRGPG | not soluble |
| MVSSLIRLRGGGLAEWNPEERPSIPAEIKRRVLVEAGHRCAIPTCRHIEVDIHHIVPWRTCQAHEYENLIALCPNCHRRADREEIDRKSLKLYKLNLRFVHEKYSQIEMDMLFDLARAPDGVGAPWTPFMLIFFKRVIDSGFVNVYELPGGIFVNGIKSSPSYLTITELGRNFISELGDRDLLALEHHHHHH | not soluble |
| PIPAWASGNLLTQAIRQQYYKPIDVDRMYGTIDSPKLEELFNKS | soluble |
| MAHHHHHHMHADGMHTEQDEFTLSQYVQRTPLARPLGLKIGARVMLRTNLAPGLVNGSLGTVVAFRKLEMDQLPRYIVGNAQREESILQYADYLKYEQGFEVPLVPVLDFNGRQEVIPPVTHFVGGLPNTHFYSMGIIALPLSLAYAFTVHKVQGLTLVGRVHLELSRMWPCEHLLYVAMSRVRNPEQLSVSSFHPSLVRAAADCLLFDDSLPPVTQVRIAPYMVAATWRRSSERRKKTVLRKRLEAYVKRRQQRLQSEASKGDIRAEIRLLEEKMLKQRVRASAAHRKRRSTPGKLGAVAGSPMV | not soluble |
| MIRVTIEREADGRIRAFTMEGHAHFAKRGQDIVCAGASAVSFGTINAIETLIGVSPHVSLGKDGGYLRCELPELEEAAAEKVQLLLEAMVVSLKTIERDYGTFIRVTSI | not soluble |
| SNAMLNTLIVGASGYAGAELVTYVNRHPHMNITALTVSAQSNDAGKLISDLHPQLKGIVELPLQPMSDISEFSPGVDVVFLATAHEVSHDLAPQFLEAGCVVFDLSGAFRVNDATFYEKYYGFTHQYPELLEQAAYGLAEWCGNKLKEANLIAVPGCYPTAAQLALKPLIDADLLDLNQWPVINATSGVSGAGRKAAISNSFCEVSLQPYGVFTHRHQPEIATHLGADVIFTPHLGNFPRGILETITCRLKSGVTQAQVAQALQQAYAHKPLVRLYDKGVPALKNVVGLPFCDIGFAVQGEHLIIVATEDNLLKGAAAQAVQCANIRFGYAETQSLI | soluble |
| SANQNFNNSETLGHQGSHVVTLQLRIDGMHCKSCVLNIEENIGQLLGVQSIQVSLENKTAQVKYDPSCTSPVALQRAIEALPPGNFKVSLPDGAEGSGTDHRSSSSHSPGSPPRNQVQGTCSTTLIAIAGMTCASCVHSIEGMISQLEGVQQISVSLAEGTATVLYNPAVISPEELRAAIEDMGFEASVVSESCSTNPLGNH | soluble |
| MKRADDFQQRRAHLANLSDEELQTRFWEMAEKIVDPLLDLGKKNTTPSIERSVLLRMGFSSLEAKAIVDKTMDRGLMGKGAGHIVYKIAKEKNISVREAGLALSEGKYWDDAIQIFKGGVK | soluble |
| MHMLKARNCGWIRLLPLFMLSLPVQAELRCVANAVDIESFFSAATAEDKQQVEQAINSSVNLVPFGLSASNWKVHRGDLVVEGNIESNQKLIVLGNLTVKGNISTFSLSNPWVILGNVTATNIVADSPLLITGSINASGLVFIDSYYDNPSTIKGSINARGIFINDIIAPVVASSTNSEFMVRASDKHDTENVKKALMIINPDAYYWGLINDEDALKEIFKRSNIRMAGNVCNQMKKEALFRPKPSPELVQELQMLDEGKVAAFEGRDIATFDLAVMRTLPRLKGISANLRKQLINSNDEQTIESMARYMPDNEILELTDQQLGYQPVVLGLLDREPLSVEIMTRMSRLPDGVGPLNLALRENLPLDIVMTLAKRDWDMIIQELYKDAWLLPESIIDGYIRSDDSSIRQVGAGGQLTYNQAMQLANDSSNNVVTSLAFKLAEMKHHGQLLRMTPQESDKVAGYLYQKFENDDDLIRVLFLALPDNLQFNFVKRMEKKSPAYFCCRDMQVIHSDAALQRLLTRFNDPEGWSNLAKNQYLSTSMKQKIWQRALSHRKNNPKADSDAYETSADMILSELISHGEVDDQMLLNATALIRSDDWDFLESALISWDNLPAVVLKELQQNTPRNDIWAKFFLRQENSSRAQVDEALRVYYALDPDALAQLDVLAKQPDRIWWSTLAKSNLTFFKFGALNNRHTPPAVLAAEIDPEWWIVAMNNPRFPVDVLKARLKRDPLLALELVNPELDLVRQLALNGKTRAIREQAMRKLDELY | not soluble |
